According to patent US20170112904A1:

Key:
Assay in all cases: cell-based or functional assay
[1] = biological target: human Glucagon-Like Peptide-1 receptor (human) (UniProt P43220)
[2] = biological target: T1, human glucose-dependent insulinotropic polypeptide receptor (human) (UniProt P48546)
T1 sequence (looked up): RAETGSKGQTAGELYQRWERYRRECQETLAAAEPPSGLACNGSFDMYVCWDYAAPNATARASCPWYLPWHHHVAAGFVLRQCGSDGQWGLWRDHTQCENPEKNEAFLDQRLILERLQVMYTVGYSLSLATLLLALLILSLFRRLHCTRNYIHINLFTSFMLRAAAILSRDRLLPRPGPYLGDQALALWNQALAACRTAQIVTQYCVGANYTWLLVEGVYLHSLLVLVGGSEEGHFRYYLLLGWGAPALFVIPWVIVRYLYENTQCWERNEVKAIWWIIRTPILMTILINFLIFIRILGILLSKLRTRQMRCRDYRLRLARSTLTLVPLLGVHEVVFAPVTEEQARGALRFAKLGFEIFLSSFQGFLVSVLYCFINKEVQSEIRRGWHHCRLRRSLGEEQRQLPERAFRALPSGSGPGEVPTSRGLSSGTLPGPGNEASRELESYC

[3] = biological target: recombinant human glucagon receptor (human) (UniProt P47871)
recombinant human glucagon receptor (human), sequence (P47871 26-477): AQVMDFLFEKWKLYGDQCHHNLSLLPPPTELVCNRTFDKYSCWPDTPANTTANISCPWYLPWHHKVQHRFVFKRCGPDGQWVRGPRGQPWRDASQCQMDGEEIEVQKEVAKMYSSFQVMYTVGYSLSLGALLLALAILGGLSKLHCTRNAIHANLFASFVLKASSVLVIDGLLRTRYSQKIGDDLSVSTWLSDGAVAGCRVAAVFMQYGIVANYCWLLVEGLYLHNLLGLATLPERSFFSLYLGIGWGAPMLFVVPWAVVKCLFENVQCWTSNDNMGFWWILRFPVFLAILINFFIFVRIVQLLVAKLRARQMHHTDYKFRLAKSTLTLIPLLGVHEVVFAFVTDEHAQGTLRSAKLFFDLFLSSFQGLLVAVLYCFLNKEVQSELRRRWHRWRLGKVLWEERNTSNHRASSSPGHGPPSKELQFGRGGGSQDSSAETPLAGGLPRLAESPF

dulaglutide (Fc fusion), sequence (chain): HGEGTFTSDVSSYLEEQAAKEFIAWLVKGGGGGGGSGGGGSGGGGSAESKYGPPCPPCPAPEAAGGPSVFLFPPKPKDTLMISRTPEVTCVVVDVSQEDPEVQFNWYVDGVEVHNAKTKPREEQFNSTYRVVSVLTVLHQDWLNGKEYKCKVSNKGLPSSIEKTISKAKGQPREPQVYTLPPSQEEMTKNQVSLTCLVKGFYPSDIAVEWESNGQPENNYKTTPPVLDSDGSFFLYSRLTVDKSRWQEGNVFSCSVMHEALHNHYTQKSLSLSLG
human Glucagon-Like Peptide-1 receptor (human), sequence (P43220 24-463): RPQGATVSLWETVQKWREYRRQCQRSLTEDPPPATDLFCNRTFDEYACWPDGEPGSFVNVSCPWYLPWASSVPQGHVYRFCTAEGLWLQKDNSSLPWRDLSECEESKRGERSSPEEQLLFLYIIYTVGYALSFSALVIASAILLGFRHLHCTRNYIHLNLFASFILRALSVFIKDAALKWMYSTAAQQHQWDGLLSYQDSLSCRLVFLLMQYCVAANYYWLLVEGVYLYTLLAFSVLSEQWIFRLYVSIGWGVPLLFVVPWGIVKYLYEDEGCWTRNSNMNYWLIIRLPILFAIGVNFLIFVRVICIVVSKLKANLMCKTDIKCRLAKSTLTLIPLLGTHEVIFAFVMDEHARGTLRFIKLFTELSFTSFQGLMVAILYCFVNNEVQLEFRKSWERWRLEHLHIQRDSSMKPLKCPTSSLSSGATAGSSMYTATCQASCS

- EC50, GLP-1 Receptor Assay; sample C6.5-4 C.-4 wk [1]: 0.37 nM
- EC50, GLP-1 Receptor Assay; sample C6.5-40 C.-4 wk [1]: 0.31 nM
- EC50, GLP-1 Receptor Assay; sample C6.5MT-4 C.-4 wk [1]: 0.4 nM
- EC50, GLP-1 Receptor Assay; sample C6.5MT-40 C.-4 wk [1]: 0.29 nM
- EC50, GIP Receptor Assay; sample C6.5-4 C.-4 wk [2]: > 100 nM
- EC50, GIP Receptor Assay; sample C6.5-40 C.-4 wk [2]: > 100 nM
- EC50, GIP Receptor Assay; sample C6.5MT-4 C.-4 wk [2]: > 100 nM
- EC50, GIP Receptor Assay; sample C6.5MT-40 C.-4 wk [2]: > 100 nM
- EC50, Gcg Receptor Assay; sample C6.5-4 C.-4 wk [3]: 51.9 nM
- EC50, Gcg Receptor Assay; sample C6.5-40 C.-4 wk [3]: > 100 nM
- EC50, Gcg Receptor Assay; sample C6.5MT-4 C.-4 wk [3]: 54 nM
- EC50, Gcg Receptor Assay; sample C6.5MT-40 C.-4 wk [3]: > 100 nM
Substance: dulaglutide (Fc fusion)
